± gives the standard deviation of the averaged measurements.

The source of these data is the supplement of paper PMC11246515.

A short description of the data set: total protein half-life in vivo (active degradation + dilution); higher = more stable protein.
The mark [1] stands for this setting: E. coli NCM3722 delta-clpP delta-lon delta-hslV, growth: N-lim chemostat, doubling time 6 h.
The mark [2] stands for this setting: E. coli NCM3722 delta-clpP, growth: N-lim chemostat, doubling time 6 h.
[3] abbreviates: E. coli NCM3722 delta-hslV, growth: N-lim chemostat, doubling time 6 h.
[4] abbreviates: E. coli NCM3722 delta-lon, growth: N-lim chemostat, doubling time 6 h.
The mark [5] stands for this setting: E. coli NCM3722 delta-smpB, growth: N-lim chemostat, doubling time 6 h.
[6] abbreviates: wild type E. coli NCM3722, growth: C-lim chemostat, doubling time 3 h.
Where [7] appears, read: wild type E. coli NCM3722, growth: C-lim chemostat, doubling time 6 h.
Setting [8] is: wild type E. coli NCM3722, growth: C-lim chemostat, doubling time 12 h.
Setting [9] is: wild type E. coli NCM3722, growth: N-lim chemostat, doubling time 6 h.
[10] abbreviates: wild type E. coli NCM3722, growth: N-lim chemostat, doubling time 12 h.
[11] abbreviates: wild type E. coli NCM3722, growth: P-lim chemostat, doubling time 6 h.
Where [12] appears, read: wild type E. coli NCM3722, growth: P-lim chemostat, doubling time 12 h.

For the sequence “MKKKIESYQGAAGGWGAVKSVANAVRKQMDIRQDVIAMFDMNKPEGFDCPGCAWPDPKHSASFDICENGAKAIAWEVTDKQVNASFFAENTVQSLLTWGDHELEAAGRLTQPLKYDAVSDCYKPLSWQQAFDEIGARLQSYSDPNQVEFYTSGRTSNEAAFLYQLFAREYGSNNFPDCSNMCHEPTSVGLAASIGVGKGTVLLEDFEKCDLVICIGHNPGTNHPRMLTSLRALVKRGAKMIAINPLQERGLERFTAPQNPFEMLTNSETQLASAYYNVRIGGDMALLKGMMRLLIERDDAASAAGRPSLLDDEFIQTHTVGFDELRRDVLNSEWKDIERISGLSQTQIAELADAYAAAERTIICYGMGITQHEHGTQNVQQLVNLLLMKGNIGKPGAGICPLRGHSNVQGDRTVGITEKPSAEFLARLGERYGFTPPHAPGHAAIASMQAICTGQARALICMGGNFALAMPDREASAVPLTQLDLAVHVATKLNRSHLLTARHSYILPVLGRSEIDMQKNGAQAVTVEDSMSMIHASRGVLKPAGVMLKSECAVVAGIAQAALPQSVVAWEYLVEDYDRIRNDIEAVLPEFADYNQRIRHPGGFHLINAAAERRWMTPSGKANFITSKGLLEDPSSAFNSKLVMATVRSHDQYNTTIYGMDDRYRGVFGQRDVVFMSAKQAKICRVKNGERVNLIALTPDGKRSSRRMDRLKVVIYPMADRSLVTYFPESNHMLTLDNHDPLSGIPGYKSIPVELEPSN”, the “total protein half-life in vivo” value amounted to 5.48 ± 0.53 h under setting [1]; 3.76 ± 1.3 h under setting [2]; 4.01 ± 0.19 h under setting [3]; 4.01 ± 0.03 h under setting [4]; 3.52 ± 0.085 h under setting [5]; 2.35 ± 0.34 h under setting [6]. Besides, the “total protein half-life in vivo” value is, setting by setting: under setting [7], 2.95 ± 0.35 h; under setting [8], 3.6 ± 0.45 h; under setting [9], 3.5 ± 0.52 h; under setting [10], 4.87 ± 1.3 h; under setting [11], 3.7 ± 0.2 h; under setting [12], 4.31 ± 0.17 h.
With “MSRPRRRGRDINGVLLLDKPQGMSSNDALQKVKRIYNANRAGHTGALDPLATGMLPICLGEATKFSQYLLDSDKRYRVIARLGQRTDTSDADGQIVEERPVTFSAEQLAAALDTFRGDIEQIPSMYSALKYQGKKLYEYARQGIEVPREARPITVYELLFIRHEGNELELEIHCSKGTYIRTIIDDLGEKLGCGAHVIYLRRLAVSKYPVERMVTLEHLRELVEQAEQQDIPAAELLDPLLMPMDSPASDYPVVNLPLTSSVYFKNGNPVRTSGAPLEGLVRVTEGENGKFIGMGEIDDEGRVAPRRLVVEYPA”, the “total protein half-life in vivo” value amounted to 5.81 ± 0.72 h under setting [1]; 4.93 ± 0.41 h under setting [2]; 4.51 ± 0.27 h under setting [3]; 4.83 ± 0.34 h under setting [4]; 4.29 ± 0.17 h under setting [5]; 3.06 ± 0.59 h under setting [6]. Also, the “total protein half-life in vivo” value was determined as 5.2 ± 0.55 h under setting [7]; 9.72 ± 0.41 h under setting [8]; 4.89 ± 0.18 h under setting [9]; 7.6476 ± 0.0051 h under setting [10]; 5.59 ± 0.17 h under setting [11]; 12.2 ± 2.5 h under setting [12].
For the sequence “MTWEYALIGLVVGIIIGAVAMRFGNRKLRQQQALQYELEKNKAELDEYREELVSHFARSAELLDTMAHDYRQLYQHMAKSSSSLLPELSAEANPFRNRLAESEASNDQAPVQMPRDYSEGASGLLRTGAKRD [P0ADW3]”, the “total protein half-life in vivo” value is 6.13 ± 0.15 h under setting [1]; 5.58 ± 0.45 h under setting [2]; 5.63 ± 0.57 h under setting [3]; 5.76 ± 0.067 h under setting [4]; 5.84 ± 0.37 h under setting [5]; 3.33 ± 0.31 h under setting [6]. For the same sequence, the “total protein half-life in vivo” value came to 6.4 ± 0.23 h under setting [7]; 12.4 ± 2.7 h under setting [8]; 5.78 ± 0.092 h under setting [9]; 11.7 ± 0.66 h under setting [10]; 5.43 ± 0.44 h under setting [11]; 12.5 ± 1.1 h under setting [12].
On to “MEALLQLKGIDKAFPGVKALSGAALNVYPGRVMALVGENGAGKSTMMKVLTGIYTRDAGTLLWLGKETTFTGPKSSQEAGIGIIHQELNLIPQLTIAENIFLGREFVNRFGKIDWKTMYAEADKLLAKLNLRFKSDKLVGDLSIGDQQMVEIAKVLSFESKVIIMDEPTDALTDTETESLFRVIRELKSQGRGIVYISHRMKEIFEICDDVTVFRDGQFIAEREVASLTEDSLIEMMVGRKLEDQYPHLDKAPGDIRLKVDNLCGPGVNDVSFTLRKGEILGVSGLMGAGRTELMKVLYGALPRTSGYVTLDGHEVVTRSPQDGLANGIVYISEDRKRDGLVLGMSVKENMSLTALRYFSRAGGSLKHADEQQAVSDFIRLFNVKTPSMEQAIGLLSGGNQQKVAIARGLMTRPKVLILDEPTRGVDVGAKKEIYQLINQFKADGLSIILVSSEMPEVLGMSDRIIVMHEGHLSGEFTREQATQEVLMAAAVGKLNRVNQE”, for which the “total protein half-life in vivo” value by setting is: under setting [1], 6.58 ± 1.1 h; under setting [2], 5.992 ± 0.012 h; under setting [3], 6.14 ± 0.13 h; under setting [4], 5.71 ± 0.28 h; under setting [5], 5.878 ± 0.015 h; under setting [6], 3.11 ± 0.17 h. Moreover, the “total protein half-life in vivo” value runs as follows: under setting [7], 6.04 ± 0.086 h; under setting [8], 11.3 ± 2.2 h; under setting [9], 5.96 ± 0.35 h; under setting [10], 12.7 ± 0.54 h; under setting [11], 6.499 ± 0.06 h; under setting [12], 12.2 ± 0.6 h.
In the case of “MTITPQNLIALLPLLIVGLTVVVVMLSIAWRRNHFLNATLSVIGLNAALVSLWFVGQAGAMDVTPLMRVDGFAMLYTGLVLLASLATCTFAYPWLEGYNDNKDEFYLLVLIAALGGILLANANHLASLFLGIELISLPLFGLVGYAFRQKRSLEASIKYTILSAAASSFLLFGMALVYAQSGDLSFVALGKNLGDGMLNEPLLLAGFGLMIVGLGFKLSLVPFHLWTPDVYQGAPAPVSTFLATASKIAIFGVVMRLFLYAPVGDSEAIRVVLAIIAFASIIFGNLMALSQTNIKRLLGYSSISHLGYLLVALIALQTGEMSMEAVGVYLAGYLFSSLGAFGVVSLMSSPYRGPDADSLFSYRGLFWHRPILAAVMTVMMLSLAGIPMTLGFIGKFYVLAVGVQAHLWWLVGAVVVGSAIGLYYYLRVAVSLYLHAPEQPGRDAPSNWQYSAGGIVVLISALLVLVLGVWPQPLISIVRLAMPLM [P0AFF0]”, the “total protein half-life in vivo” value under setting [1] came to 7.16 h; the “total protein half-life in vivo” value under setting [2] worked out at 6.36 ± 0.41 h; the “total protein half-life in vivo” value under setting [3] came out at 6.09 ± 1.6 h; the “total protein half-life in vivo” value under setting [5] was determined as 6.08 h; the “total protein half-life in vivo” value under setting [6] turned out to be 3.46 h; the “total protein half-life in vivo” value under setting [9] amounted to 5.29 h. The “total protein half-life in vivo” value under setting [12] worked out at 11.8 ± 1.4 h.
Take “MKKGTVLNSDISSVISRLGHTDTLVVCDAGLPIPKSTTRIDMALTQGVPSFMQVLGVVTNEMQVEAAIIAEEIKHHNPQLHETLLTHLEQLQKHQGNTIEIRYTTHEQFKQQTAESQAVIRSGECSPYANIILCAGVTF”: the “total protein half-life in vivo” value was found to be 5.99 ± 0.1 h under setting [1]; 5.79 ± 2.1 h under setting [2]; 4.85 h under setting [3]; 4.78 ± 0.7 h under setting [5]; 3.49 ± 0.2 h under setting [6]; 6.69 ± 1.8 h under setting [7]. For the same sequence, the “total protein half-life in vivo” value under setting [8] was 10.6 ± 0.4 h; the “total protein half-life in vivo” value under setting [9] stood at 4.95 ± 0.51 h; the “total protein half-life in vivo” value under setting [10] came to 6.08 h; the “total protein half-life in vivo” value under setting [11] came to 6.43 ± 0.15 h; the “total protein half-life in vivo” value under setting [12] was found to be 13.3 ± 2.3 h.
Regarding “MHELSLCQSAVEIIQRQAEQHDVKRVTAVWLEIGALSCVEESAVRFSFEIVCHGTVAQGCDLHIVYKPAQAWCWDCSQVVEIHQHDAQCPLCHGERLRVDTGDSLIVKSIEVE [P0A703]”, the “total protein half-life in vivo” value under setting [1] turned out to be 4.94 ± 1.4 h; the “total protein half-life in vivo” value under setting [2] was found to be 3.51 h; the “total protein half-life in vivo” value under setting [4] amounted to 3.49 ± 0.32 h; the “total protein half-life in vivo” value under setting [5] was 3.57 h; the “total protein half-life in vivo” value under setting [8] was determined as 9.8 h; the “total protein half-life in vivo” value under setting [9] is 3.97 ± 0.6 h. Moreover, the “total protein half-life in vivo” value is, setting by setting: under setting [10], 5.27 ± 1.4 h; under setting [11], 3.77 h; under setting [12], 8.0989 ± 0.006 h.
